Measurements reported in publication PMC8210318.

Biological target: replication protein A (RPA) heterotrimer (UniProt P27694)

B1: N-HelQ, N-terminal HelQ fragment (amino acids 1-240) (domain or fragment)
chain: MDECGSRIRRRVSLPKRNRPSLGCIFGAPTAAELVPGDEGKEEEEMVAENRRRKTAGVLPVEVQPLLLSDSPECLVLGGGDTNPDLLRHMPTDRGVGDQPNDSEVDMFGDYDSFTENSFIAQVDDLEQKYMQLPEHKKHATDFATENLCSESIKNKLSITTIGNLTELQTDKHTENQSGYEGVTIEPGADLLYDVPSSQAIYFENLQNSSNDLGDHSMKERDWKSSSHNTVNEELPHNCI
Binder B1 has a free, unbound DNA liberated from pre-bound RPA (12.5 nM)–fork-2 DNA complex in EMSAs on incremental addition of N-HelQ (0–500 nM) of 40%.
